Source: patent publication US20240141047A1 (AGENUS, published 2024)

Target: T1, human TIGIT fused to Fc (human, UniProt Q495A1 22-141)
T1 construct: Called a dimeric form of TIGIT; also called human TIGIT-Fc; human dimeric TIGIT-Fc; not shown: Fc
T1 sequence: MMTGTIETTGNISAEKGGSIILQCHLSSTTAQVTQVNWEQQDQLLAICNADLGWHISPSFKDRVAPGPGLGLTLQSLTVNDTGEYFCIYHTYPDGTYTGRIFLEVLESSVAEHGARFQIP
Assay: SPR, human TIGIT-Fc captured on CM5 chip, BA002 Fab in solution, 1:1 model
Description: Briefly, surface plasmon resonance experiments were performed using a Biacore T200 instrument, and the association rate (Kₐ), dissociation rate (Kd), and dissociation constant (KD) were calculated from each experiment using a 1:1 binding model with Biacore T200 Evaluation Software.
In a similar experiment measuring binding of a monovalent form of BA002 to human TIGIT-Fe, human TIGIT-Fc was captured on flow-cell 2 of a CM5 chip, keeping flow-cell 1 as reference, at a flow rate of 5 μL/min. […] The higher calculated dissociation rate between human TIGIT-Fc and BA002 Fab, relative to the calculated dissociation rate between human TIGIT-Fc and full-length BA002 described above, is consistent with the presence of an avidity effect with the bivalent form of BA002.

Kd: 6.8 nM
koff: 0.019 s⁻¹
kon: 2.8e+06 M⁻¹ s⁻¹
B1: BA002 in Fab format (Fab, V domains shown)
VH: EVQLVQSGAEVEKPGASVKVSCKASGYTFASYGISWVRQAPGQGLEWMGGITPFFNRVDVAEKFQGRVTITADTSTNTVYIELSSLTSEDTAVYYCARDLRRGGVGDAFDIWGRGTLVTVSS
VL: QSALTQPRSVSGSPGQSVTISCTGTSSDVGSHNYVSWYQQHPGKAPQLMIYEVSYRPSEISNRFSGSKSGNTASLTISGLQPEDEADYYCSSYTPSSATVFGAGTKLTVLG
modifications: chain 1 pos 1: glutamate or pyroglutamate (from Glu), written E; chain 2 pos 1: glutamine or pyroglutamate (from Gln), written Q
notes: also called BA002 Fab; monovalent form of BA002
